Paper PMC7644671 (Nature structural & molecular biology, 2020)

Target: the molecule itself
Assay: cryo-EM structure

B1: mouse DUOX1 (enzyme, mouse (Mus musculus), UniProt A2AQ92 20-1551, looked up)
chain: GAQNSISWEVQRFDGWYNNLMEHRWGSKGSRLQRLVPASYADGVYQPLKEPYLPNPRHLSNRVMRGSAGQPSLRNRTVLGVFFGYHVLSDLVSVETPGCPAEFLNIYIPHGDPVFDPDKRGNVVLPFQRSRWDRNTGQSPSNPRDQSNQVTGWLDGSAIYGSSHSWSDTLRSFSGGQLASGPDPAFPSDSQSSLLMWMAPDPSTGQGGPRGVYAFGAQRGNREPFLQALGLLWFRYHNLCARKLAQEHPHWGDEELFQHARKRVIATYQNIAMYEWLPSFLKQTPPEYPGYRPFLDPSISPEFVVASEQFLSTMVPSGVYMRNASCHFQGIPSHNSSVSGALRVCNSYWSREHPKLQRAEDVDALLLGMASQIAEREDHVVVEDMQDFWPGPLKFSRTDYLASCLQRGRDLGLPSYTKAREALGLSPISHWQDINPALSRSNGTVLEATAALYNQDLSRLELLPGGLLESHGDPGPLFSTIVLDQFVRLRDGDRYWFENTRNGLFSKEEIAEIRNTSLRDILVAVTNVDPSALQPNVFFWLAGDPCPQPSQLSAKGLPACAPLFIRDYFEGSGFGFGLTIGTLCCFPLVSLLSAWIVARLRKRNFKRLQRQDRQSIMSEKLVGGVEALEWQGRNEPCRPVLVHLQPGQIRVVDGRLTVLRTIQLRPPQQVNLILSSNRGRRTLLLKIPKEYDLVLLFNMEEERQALVENVRGALKENGLSFQEWELREQELMRAAVTRQQRGHLLETFFRHLFSQVLDINQADAGTLPLDSSTKVREALTCELSRAEFADSLGLKPQDMFVESMFSLADKDGNGYLSFREFLDILVVFMKGSPEEKSRLMFRMYDFDGNGLISKDEFIRMLRSFIEISNNCLSKAQLAEVVESMFRESGFQDKEELTWEDFHFMLRDHDSDLRFTQLCVKGVEVPEVIKNLCRRASYISQEKICPSPRMSAHCARNNMKTASSPQRLQCPMDTDPPQEIRRRFGKKVTSFQPLLFTEAHREKFQRSRRHQTVQQFKRFIENYRRHIGCVAVFYTITGALFLERAYYYAFAAHHSGITDTTRVGIILSRGTAASISFMFSYILLTMCRNLITFLRETFLNRYIPFDAAVDFHRLIASTAIILTVLHSAGHVVNVYLFSISPLSVLSCLFPGLFHDDGSEFPQKYYWWFFQTVPGLTGVLLLLALAIMYVFASHHFRRRSFRGFWLTHHLYIFLYILLIIHGSFALIQMPRFHIFFLVPAIIYVGDKLVSLSRKKVEISVVKAELLPSGVTHLRFQRPQGFEYKSGQWVRIACLALGTTEYHPFTLTSAPHEDTLSLHIRAAGPWTTRLREIYSPPTGDTCARYPKLYLDGPFGEGHQEWHKFEVSVLVGGGIGVTPFASILKDLVFKSSVSCQVFCKKIYFIWVTRTQRQFEWLADIIREVEENDRQDLVSVHIYITQLAEKFDLRTTMLYICERHFQKVLNRSLFTGLRSITHFGRPPFEPFFNSLQEVHPQVRKIGVFSCGPPGMTKNVEKACQLINRQDRTHFSHHYENF
modifications: sugar densities at glycosylation sites N94, N324 and N534
  stoichiometry N: 2
